Measurements from PMC12045711.

How the values were obtained:
[1] = target: Thermoproteota archaeon TasR (TaTasR) (Thermoproteota archaeon isolate LB_CRA_1); assay: cryo-EM structure; TasR tigRNA1 RNP (16 uM) mixed with 60-bp target DNA (8 uM), 29 mM HEPES-KOH pH 7.9, 149 mM KCl, 5 mM MgCl2, 42 C for 1 h; 2D classification of the final particles with a large box and a 300 A circular mask
[2] = target: Thermoproteota archaeon TasR (TaTasR), TIGR-associated protein with an N-terminal RuvC nuclease domain and a Nop domain (Thermoproteota archaeon isolate LB_CRA_1); assay: cryo-EM structure; TasR tigRNA1 RNP (16 uM) mixed with a 60-bp DNA target (8 uM) in 29 mM HEPES-KOH pH 7.9, 149 mM KCl, 5 mM MgCl2; 42°C for 1 hour, then on ice for 3 hours; post-cleavage product complex

Substance	stoichiometry N [1]	stoichiometry N [2]
Thermoproteota archaeon TasR (TaTasR) (enzyme)	2	
Thermoproteota archaeon TasR (TaTasR), TIGR-associated protein with an N-terminal RuvC nuclease domain and a Nop domain (enzyme)		2
